Measurements reported in the supplement of paper PMC7877785.
± gives the uncertainty stated by the source.

Assay: self-splicing fitness, log relative to wild type (ln ratio); higher = more splicing; Tetrahymena group I intron in knt gene, E. coli kanamycin selection, DiMSum; sequences stand for … in CUCUCU…GGAGGGAAAAGUUAUCAGGCAUGCACCUGGUAGCUAGUCUUUAAACCAAUAGAUUGCAUCGGUUUAAAAGGCAAGACCGUCAAAUUGCGGGAAAGGGGUCAACAGCCGUUCAGUACCAAGUCUCAGGGGAAACUUUGAGAUGGCCUUGCAAAGGGUAUGGUAAUAAGCUGACGGACAUGGUCCUAACCACGCAGCCAAGUCCUAAGUCAACAGAUCUUCUGUUGAUAUGGAUGCAGUUCACAGACUAAAUGUCGGUCGGGGAAGAUGUAUUCUUCUCAUAAGAUAUAGUCGGACCUCUCCUUAAUGGGAGCUAGCGGAUGAAGUGAUGCAACACUGGAGCCGCUGGGAACUAAUUUGUAUGCGAAAGUAUAUUGAUUAGUUUUGGAGUACUCGUGGUCG
Summary of the method: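 DiMSum derived fitness as the error-weighted combination of fold changes across replicates, kanamycin versus no kanamycin, normalised to wild type. E. coli BL21(DE3) held the library, which randomised all eight P1ex-region intron nucleotides within the knt kanamycin-resistance gene on pET-22b(+). Six replicate transformations grew overnight at 37°C or 30°C on LB agar with or without 25 μg/mL kanamycin, also containing 100 μg/mL carbenicillin, 50 μM IPTG and 0.2% rhamnose, and pooled colonies were amplicon-sequenced on an Illumina HiSeq 2500.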

Sequence	self-splicing fitness (ln) (30 °C)	self-splicing fitness (ln) (37 °C)
GCUCAGCAAUAUUACGCAGU	-2.41 ± 0.15	-1.13 ± 0.14
AUCUAGCAAUAUUACGCUGC	-2.92 ± 0.24	-1.66 ± 0.18
GCCUAGCAAUAUUACGACUA	–	-1.93 ± 0.38
CAUAAGCAAUAUUACGUAAU	-4.04 ± 0.28	-2.16 ± 0.14
CGCCAGCAAUAUUACGGCCG	-2.9 ± 0.14	-0.755 ± 0.18
UGAAAGCAAUAUUACGGAAU	-3.12 ± 0.18	-0.0346 ± 0.15
GACGAGCAAUAUUACGGCCG	-2.02 ± 0.25	-0.723 ± 0.37
UUUAAGCAAUAUUACGGUGU	-3.85 ± 0.28	-2.3 ± 0.35
UAAAAGCAAUAUUACGACGG	0.0981 ± 0.087	-0.342 ± 0.13
GAUCAGCAAUAUUACGCUGG	-3.48 ± 0.21	-3.18 ± 0.27
GCAUAGCAAUAUUACGACAG	-3.41 ± 0.26	-2.71 ± 0.33
CCAUAGCAAUAUUACGAAUC	-3.22 ± 0.14	-1.38 ± 0.17
CAGUAGCAAUAUUACGGCUC	-1.36 ± 0.14	0.325 ± 0.16
UCCCAGCAAUAUUACGGACC	-3.42 ± 0.27	0.0123 ± 0.17
CUUUAGCAAUAUUACGGAGU	–	-2.46 ± 0.48
UACCAGCAAUAUUACGAGAC	-2.38 ± 0.18	-1.54 ± 0.2
UGGCAGCAAUAUUACGAUUA	-0.716 ± 0.089	0.492 ± 0.11
CAGAAGCAAUAUUACGCUAU	-3.4 ± 0.16	-3.04 ± 0.16
GGAAAGCAAUAUUACGUCUU	-0.00168 ± 0.13	-0.112 ± 0.15
CUAAAGCAAUAUUACGAACA	-2.48 ± 0.12	-2.03 ± 0.2
CGAAAGCAAUAUUACGUGGG	-2.3 ± 0.098	-2.46 ± 0.14
GCCAAGCAAUAUUACGUCAG	-3.6 ± 0.23	-2.73 ± 0.28
UUGAAGCAAUAUUACGGGUU	-1.66 ± 0.093	-1.66 ± 0.16
UCGUAGCAAUAUUACGCGGA	-2.54 ± 0.17	-1.4 ± 0.12
AGUCAGCAAUAUUACGUAGU	-1.21 ± 0.077	-0.268 ± 0.12

Sequence	self-splicing fitness (ln) (30 °C)	self-splicing fitness (ln) (37 °C)
GUCGAGCAAUAUUACGUCAU	-1.8 ± 0.12	-1.13 ± 0.1
UAAUAGCAAUAUUACGAUUC	–	-2.05 ± 0.23
GGAGAGCAAUAUUACGAUCU	–	-2.47 ± 0.29
GGUAAGCAAUAUUACGAAGC	-3.07 ± 0.23	-0.664 ± 0.23
GAUUAGCAAUAUUACGCUGG	-1.73 ± 0.14	-1.68 ± 0.22
UCCCAGCAAUAUUACGCGGA	-2.72 ± 0.17	-1.12 ± 0.12
AUAAAGCAAUAUUACGCUUC	-3.66 ± 0.37	-2.39 ± 0.32
AAUCAGCAAUAUUACGAUUG	-1.54 ± 0.064	-0.631 ± 0.085
CCAUAGCAAUAUUACGGAAG	-3.19 ± 0.16	-1.67 ± 0.14
UAUCAGCAAUAUUACGAGCC	-3.24 ± 0.34	-2.33 ± 0.3
GGGCAGCAAUAUUACGACGC	0.36 ± 0.13	-0.0449 ± 0.18
UCAUAGCAAUAUUACGCCGA	-0.67 ± 0.18	0.277 ± 0.18
GCGCAGCAAUAUUACGAUUC	-0.291 ± 0.09	0.1 ± 0.1
CGUUAGCAAUAUUACGCAGA	-3.21 ± 0.41	-2.31 ± 0.23
CCGAAGCAAUAUUACGUUCU	-3.84 ± 0.26	-3.37 ± 0.24
CGUGAGCAAUAUUACGUACG	–	-0.531 ± 0.23
UAAAAGCAAUAUUACGGGAU	-3.01 ± 0.27	-2.23 ± 0.18
CGUGAGCAAUAUUACGCUAU	-2.39 ± 0.17	-2.49 ± 0.23
GGAGAGCAAUAUUACGAUUU	-1.65 ± 0.24	0.185 ± 0.43
GCAGAGCAAUAUUACGGCUC	-2.69 ± 0.37	-1.99 ± 0.46
GUCGAGCAAUAUUACGUUGC	-2.19 ± 0.2	-2.25 ± 0.41
GCGCAGCAAUAUUACGUAGA	-2.28 ± 0.1	-0.72 ± 0.099
CGUGAGCAAUAUUACGGCCA	-2.35 ± 0.49	–
AUAGAGCAAUAUUACGCGGG	-2.17 ± 0.12	-2.33 ± 0.16
AUGGAGCAAUAUUACGGCCA	-1.49 ± 0.18	-0.494 ± 0.21

Sequence	self-splicing fitness (ln) (30 °C)	self-splicing fitness (ln) (37 °C)
UAGCAGCAAUAUUACGGAUA	-0.783 ± 0.081	-0.203 ± 0.1
CAUAAGCAAUAUUACGGUAA	-3.92 ± 0.46	-2.77 ± 0.29
UGACAGCAAUAUUACGUCAG	-2.12 ± 0.096	-1.75 ± 0.11
UAGUAGCAAUAUUACGUCGG	-2.04 ± 0.08	-1.53 ± 0.12
CUACAGCAAUAUUACGGAAC	-4.6 ± 0.34	-3.47 ± 0.35
ACCCAGCAAUAUUACGGUGG	-3.57 ± 0.15	-2.76 ± 0.18
GCUCAGCAAUAUUACGGUUG	-4.11 ± 0.27	-2.28 ± 0.24
GGCCAGCAAUAUUACGACCG	-1.21 ± 0.11	-0.323 ± 0.14
AGGGAGCAAUAUUACGAAUC	–	-2.43 ± 0.29
CUAGAGCAAUAUUACGCUAC	-2.83 ± 0.27	–
CCGCAGCAAUAUUACGAAUC	-1.78 ± 0.17	–
ACGUAGCAAUAUUACGGCGC	-1.11 ± 0.083	-0.695 ± 0.098
GUGGAGCAAUAUUACGUAGC	0.305 ± 0.33	–
GUUCAGCAAUAUUACGUGGC	-2.08 ± 0.1	-2.25 ± 0.16
ACCUAGCAAUAUUACGCAUG	-2.27 ± 0.15	-1.42 ± 0.14
UUCCAGCAAUAUUACGGUAC	-4.17 ± 0.24	-2.6 ± 0.23
CACAAGCAAUAUUACGUGUG	-3.65 ± 0.12	-2.69 ± 0.12
UGCCAGCAAUAUUACGAGAG	-4.28 ± 0.21	-2.56 ± 0.14
GGCAAGCAAUAUUACGCCUU	-2.83 ± 0.22	-0.231 ± 0.16
CACCAGCAAUAUUACGGCUA	-1.1 ± 0.083	-0.202 ± 0.074
GUGGAGCAAUAUUACGGAGC	-2.43 ± 0.2	-0.177 ± 0.25
CACGAGCAAUAUUACGCAUG	-3.6 ± 0.11	-2.74 ± 0.15
AUACAGCAAUAUUACGUUUA	-1.73 ± 0.078	-1.07 ± 0.084
CCUCAGCAAUAUUACGACUG	-3.09 ± 0.23	-2.76 ± 0.21
CUAAAGCAAUAUUACGCCGC	-2.9 ± 0.22	–

Sequence	self-splicing fitness (ln) (30 °C)	self-splicing fitness (ln) (37 °C)
GGAAAGCAAUAUUACGCAUA	-0.868 ± 0.1	-1.5 ± 0.12
UCCUAGCAAUAUUACGCGUG	-4.1 ± 0.15	-2.75 ± 0.12
CUUAAGCAAUAUUACGAUAG	-2.01 ± 0.15	-0.283 ± 0.15
GUCUAGCAAUAUUACGCGGU	-1.78 ± 0.26	-1.04 ± 0.38
CGUCAGCAAUAUUACGGCAC	-1.8 ± 0.12	-0.799 ± 0.14
GAGGAGCAAUAUUACGGUUA	-2.45 ± 0.28	-2.2 ± 0.3
CUCGAGCAAUAUUACGUUCC	-3.4 ± 0.19	-2.63 ± 0.27
AUACAGCAAUAUUACGCAGG	-2.78 ± 0.14	-0.332 ± 0.11
CCCCAGCAAUAUUACGCCUA	-2.61 ± 0.18	-2.89 ± 0.32
UAACAGCAAUAUUACGCCGA	-1.95 ± 0.11	-0.415 ± 0.089
UCUGAGCAAUAUUACGUCCA	-2.33 ± 0.3	-1.68 ± 0.38
ACCGAGCAAUAUUACGUCUU	-2.91 ± 0.12	-2.22 ± 0.13
GGAAAGCAAUAUUACGAUGG	-3.14 ± 0.22	-2.39 ± 0.21
GACUAGCAAUAUUACGAUAC	-1.31 ± 0.07	-0.489 ± 0.092
AGCAAGCAAUAUUACGUCUA	-0.673 ± 0.062	-0.456 ± 0.08
GGAUAGCAAUAUUACGCUUG	-1.81 ± 0.12	-1.11 ± 0.16
GCGCAGCAAUAUUACGUGUG	-3.2 ± 0.12	-2.65 ± 0.15
AUACAGCAAUAUUACGAGUG	-2.32 ± 0.073	-1.34 ± 0.093
UUAUAGCAAUAUUACGCUAU	-3.51 ± 0.44	-4.04 ± 0.46
UCCAAGCAAUAUUACGGGAG	-2.57 ± 0.16	-2.9 ± 0.35
ACCCAGCAAUAUUACGAUGA	-1.43 ± 0.09	-0.256 ± 0.088
CGCGAGCAAUAUUACGUCCA	–	-1.96 ± 0.32
AGCUAGCAAUAUUACGGUAG	-3.91 ± 0.27	-3.18 ± 0.23
AGACAGCAAUAUUACGCUGA	-2.39 ± 0.16	-1.75 ± 0.19
